According to patent US20050080013A1 (Pfizer, published 2005):
Non-standard residues stand in square brackets, D forms with d. No end group written: not given here.

T1: lecithin:cholesterol acyltransferase (LCAT), purified from human plasma (human, UniProt P04180 25-440)
T1 sequence (looked up): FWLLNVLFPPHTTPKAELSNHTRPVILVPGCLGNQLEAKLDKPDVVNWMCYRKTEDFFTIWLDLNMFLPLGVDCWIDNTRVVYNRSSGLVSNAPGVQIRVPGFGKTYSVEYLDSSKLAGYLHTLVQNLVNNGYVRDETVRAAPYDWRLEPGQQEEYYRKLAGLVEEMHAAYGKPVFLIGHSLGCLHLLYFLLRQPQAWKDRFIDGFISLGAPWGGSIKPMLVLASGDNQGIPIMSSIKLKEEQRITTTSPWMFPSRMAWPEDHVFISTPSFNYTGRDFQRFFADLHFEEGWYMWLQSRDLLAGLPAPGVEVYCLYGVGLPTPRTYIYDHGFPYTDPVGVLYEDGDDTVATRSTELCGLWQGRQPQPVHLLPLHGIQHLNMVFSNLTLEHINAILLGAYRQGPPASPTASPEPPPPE


These binders were tested against T1, lecithin:cholesterol acyltransferase … (assay: cell-based or functional assay).

| ACTIVITY (%) LCAT [%] | Binder |
| --- | --- |
| 5 | DWFKAFYDKVAEKFKEAF [peptide 243] |
| 58 | [dP]VLDLFRELLNEGLEALKQKLK [peptide 19] |
| 19 | Ac-EWLKAFYEKVLEKLKELF-NH2 [peptide 238] |
| 8 | PVLDAFRELLEALLQLKK [peptide 222] |
| 10 | Ac-DWLKAFYDKVAEKLKEAF-NH2 [peptide 240] |
| 1 | PVLDAFRELAEALAQLKK [peptide 225] |
| 5 | DWLKAFYDKVAEKLKEAF [peptide 244] |
| 38 | Ac-PVLDLFRELLEEWKQKLK-NH2 [peptide 215] |
| 1 | PVLDAFRELGEALLQLKK [peptide 226] |
| 22 | PVLDLFRELLEELQKKLK [peptide 220] |
| 8 | DWFKAFYDKVFEKFKEFF [peptide 241] |
| 8 | PVLDAFRELLEALAQLKK [peptide 223] |
| 11 | Ac-EWLEAFYKKVLEKLKELF-NH2 [peptide 239] |
| 0 | Ac-PVLDLFRELLEEGKQKLK-NH2 [peptide 229] |

Further lines, the binder ahead of its results:

| Binder | ACTIVITY (%) LCAT [%] |
| --- | --- |
| PVLDLFREGWEELKQKLK [peptide 224] | 8 |
| Ac-PVLDLFREGLEELKQKLK-NH2 [peptide 228] | 0 |
| PVLDLFREGLNELLEALKQKLK [peptide 20] | 57 |
| PVLDLFRELLELLKQKLK [peptide 217] | 30 |
| LDDLLQKWAEAFNQLLKK [peptide 237] | 11 |
| PVLDLFRELLNELWQKLK [peptide 219] | 24 |
| Ac-PVLDLFRELLNELLQKLK-NH2 [peptide 218] | 29 |
| GVLDLFRELLNELLEALKQKLKK [peptide 2] | 105 |
| PVLELFKELLEELKQKLK [peptide 216] | 35 |
| Ac-PVLDLFRELGEELKQKLK-NH2 [peptide 227] | 0 |
| GIKKFLGSIWKFIKAFVG [peptide 242] | 7 |
| Ac-DVLDLFRELLEELKQKLK-NH2 [peptide 221] | 12 |
| XVLDLFRELLNELLEALKQKLK (D-Pro (p) at 1) [peptide 21] | 57 |
